Values quoted from earlier work in article PMC4610412.

Molecular target: pCdc25C (Homo sapiens) (UniProt P30307)
Experiment: ITC

pCdc25C (Homo sapiens), sequence (P30307 2-473): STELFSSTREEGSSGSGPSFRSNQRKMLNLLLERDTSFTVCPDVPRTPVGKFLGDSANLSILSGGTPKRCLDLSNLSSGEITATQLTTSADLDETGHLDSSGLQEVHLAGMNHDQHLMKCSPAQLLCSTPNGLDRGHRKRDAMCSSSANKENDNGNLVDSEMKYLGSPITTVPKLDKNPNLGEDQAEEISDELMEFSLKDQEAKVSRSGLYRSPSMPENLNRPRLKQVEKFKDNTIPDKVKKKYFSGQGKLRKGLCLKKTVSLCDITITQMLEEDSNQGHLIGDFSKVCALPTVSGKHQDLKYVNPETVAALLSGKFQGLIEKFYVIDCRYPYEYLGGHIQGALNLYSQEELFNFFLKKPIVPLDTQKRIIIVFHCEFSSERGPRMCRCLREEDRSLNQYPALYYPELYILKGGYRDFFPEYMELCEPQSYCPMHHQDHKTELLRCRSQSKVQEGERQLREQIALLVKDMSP
Pin1 PPIase, sequence (Q13526 52-163): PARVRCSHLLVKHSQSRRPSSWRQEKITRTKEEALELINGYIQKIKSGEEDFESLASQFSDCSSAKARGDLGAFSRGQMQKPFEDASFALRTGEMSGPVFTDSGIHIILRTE
Pin1 WW, sequence (Q13526 2-42): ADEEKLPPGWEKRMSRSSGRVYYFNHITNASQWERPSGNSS

| Substance | Kd [µM] |
| --- | --- |
| Pin1 WW (from UniProt Q13526) | 13 |
| Pin1 PPIase (from UniProt Q13526) | 1000 |
